Source: paper doi:10.1101/2025.11.17.688879 (bioRxiv, 2025)

Target: the molecule itself
Test: native gel or EMSA

Protein	stoichiometry N
HA-NvSTING stably expressed in MEF Sting-/- cells (MEF^NvSTING) (natural protein, Nematostella vectensis) MRRAEENNGFGTIPKRRNQHTPFYASIGMIVVIIVAFTSYHITSYGDDRNRAMRQYSFTFSLAYLAFLVGELLRRCCLFAEEYRHIETRYNGSLKKAIQTTFSFGHNNVLFVASLLFFVVFVASNDPNGSSSVIQGNSTAEPHTEMRQTSGWQGLWGQFIISALLTPLVVHLLGLRELSKVEESQLNEKENKNVADGLAWSYYFGYLKFVLPELEKQIEKTSKFRSKEKFVKKMFILIPSNCFWDDKIPGSDYDPQNRITFEGNTEPLEKTRGGVFLRHYKHSVYEIKDGENEPWFCIMEYATPLLTLYDMSVAQPGELSREERDAQVVVFLRKLQDILEGDRACQGKYELVTFSPDRDLADVMLRKLKDSELEIGG	≥ 4
HA-DrSTING stably expressed in MEF Sting-/- cells (MEF^DrSTING) (natural protein, Danio rerio) MSVMGEDALVPRARSRLPVMCAAGLGFLTLAVAWLLDSDKFSERAGIIAFGLMLERFIYCICLLAEELLFHSRQRYHGRMSEIFRACFRGSGILGMCAIFLMLMLGGVSFSVKQWSHFNLMCAGYMLLNSLGVLGPAPVEISEICEAKKMNVAHGLAWSFYIGYLKFLLPALEVNVREYSRRERLSSPRLHILLPLNARVPSKPEEEDTNVVFHENLPDLKLDRAGVRKRSYTNSVYKITHNNETFSCILEYATPLLTLYQMSQESSAGFGERERKQQVLLFYRTLSQILDNSLECRNRYRLILLNDEHTGDPHYLSRELFQNLKQQDGEIFMDPTNEVHPVPEEGPVGNCNGALQATFHEEPMSDEPTLMFSRPQSLRSEPVETTDYFNPSSAMKQN	≥ 4
HA-MmSTING stably expressed in MEF Sting-/- cells (MEF^MmSTING) (natural protein, Mus musculus) MPYSNLHPAIPRPRGHRSKYVALIFLVASLMILWVAKDPPNHTLKYLALHLASHELGLLLKNLCCLAEELCHVQSRYQGSYWKAVRACLGCPIHCMAMILLSSYFYFLQNTADIYLSWMFGLLVLYKSLSMLLGLQSLTPAEVSAVCEEKKLNVAHGLAWSYYIGYLRLILPGLQARIRMFNQLHNNMLSGAGSRRLYILFPLDCGVPDNLSVVDPNIRFRDMLPQQNIDRAGIKNRVYSNSVYEILENGQPAGVCILEYATPLQTLFAMSQDAKAGFSREDRLEQAKLFCRTLEEILEDVPESRNNCRLIVYQEPTDGNSFSLSQEVLRHIRQEEKEEVTMNAPMTSVAPPPSVLSQEPRLLISGMDQPLPLRTDLI	≥ 4
HA-MbSTING stably expressed in MEF Sting-/- cells (MEF^MbSTING) (natural protein, Monosiga brevicollis) MMVNLSDLSHLSQRGWAQVFVTLAAAAISIFYFSFSPFEVAAGICASIAAAGAVPLLFDAVHYLIAFCISAPDARPPLRTVWTKTRLQRWSGLSILTFIVLACGLYFASPSPMSASNLFAVFALSLCNSVFSAMVAPRCGRLEVVDLATHPNTVLFRDFGAASAMSYWHGYLQHIAGDRAALEERFRDSDVGGMRVPRKLYILVPQDCEVNASDNKYEGLKATEHYISPKPITIGGVVDREMGKHTLYTPSESAETASVAFAMELASPLNTMKNALKDAAEGLLELQSEAFYLTLRGILKQEGVLDQGNDEGMIKLVWGKNRSEVLKKMRAEDQYAMP	4
